According to the supplement of paper PMC9732359:
± gives the uncertainty stated by the source.

Experiment: protein stability index of a GFP-peptide fusion (yeast GPS) (PSI 1-4); higher = more stable; sorted into four equal gates, so the index is relative within each strain
How it was run: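 Plasmids in a pooled yeast library fused tiled 17-residue yeast protein peptides downstream of GFP and also expressed Cherry. Mid-log cultures grown without leucine were sorted into four equal gates by GFP/Cherry fluorescence ratio. Each gate's plasmids were PCR-amplified and Illumina-sequenced, and reads were matched to strains by barcodes. The protein stability index is derived by multiplying each gate's read frequency by its gate number and summing the results.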

| Sequence | protein stability index (pdr5∆) | protein stability index (san1∆) | protein stability index (ubr1∆) | protein stability index (doa10∆) |
| --- | --- | --- | --- | --- |
| LLIGCKLDQDDEIYIPI [CSI1] | 3.12 ± 0.18 | 3.01 ± 0.084 | 3.09 ± 0.11 | – |
| LKRISDGLSFGKGESVI [SIR3] | – | 3.33 ± 0.099 | 3.76 ± 0.19 | 3.21 ± 0.28 |
| YGIPLEFYNEMHRPVHF [PRP8] | 2.04 ± 0.1 | 1.98 ± 0.14 | 2.64 ± 0.15 | 1.85 ± 0.074 |
| DIRKFLDGIYVSHKGFI [RPL9A] | 2.08 ± 0.077 | 1.77 ± 0.16 | 3.23 ± 0.1 | 1.39 ± 0.1 |
| ELLKLLNDEYNYPQLTE [YCS4] | 3.11 ± 0.098 | 3.03 ± 0.059 | 3.25 ± 0.06 | 3.09 ± 0.096 |
| AFKHKRALVEHIIQAKA [RPL19A] | 3.37 ± 0.1 | 3.19 ± 0.12 | 3.19 ± 0.072 | 3.11 ± 0.13 |
| SWASEGISKKTRIAGVV [RPS8A] | 2.28 ± 0.034 | 2.17 ± 0.045 | 2.03 ± 0.034 | 2.54 ± 0.039 |
| QDGGVTPYSNESGLVNA [RPO21] | 2.69 ± 0.065 | 2.63 ± 0.058 | 2.6 ± 0.068 | 2.68 ± 0.055 |
| MVVQKYKLSTVVLRLYL [GRR1] | 1.58 ± 0.049 | 1.38 ± 0.081 | 1.64 ± 0.068 | 1.66 ± 0.069 |
| LYNDNNKNNNNRHNLLN [SWI1] | 1.96 ± 0.062 | 1.95 ± 0.065 | 2.4 ± 0.047 | 3.08 ± 0.1 |
| DLRLIKVPQQAAGKRIS [SMC1] | 1.31 ± 0.2 | 1.1 ± 0.13 | 1.15 ± 0.07 | 1.36 ± 0.099 |
| RSEFIESLLNWINRSDG [YJR042W/NUP85] | 3.11 ± 0.15 | 2.77 ± 0.24 | 3.22 ± 0.22 | – |
| DMLEHINLAMNESSLAL [SRB4] | 1.28 ± 0.11 | 1.25 ± 0.15 | 1.52 ± 0.092 | 1.49 ± 0.094 |
| NNGSKDHGDGILLIDSE [RPN9] | 3.19 ± 0.17 | 3.38 ± 0.063 | 3.41 ± 0.21 | 3.37 ± 0.16 |
| MSDFQKEKVEEQEQQQQ [RPS20] | 3.17 ± 0.15 | 3.16 ± 0.08 | 3.51 ± 0.085 | 2.87 ± 0.15 |
| ITVVLGVNGYIWLRKTS [RRP4] | 1.62 ± 0.12 | 1.34 ± 0.26 | 1.95 ± 0.11 | 1.61 ± 0.2 |
| WLETYSENRDKFLQEFI [IRR1] | 1.93 ± 0.11 | 2.58 ± 0.096 | 1.92 ± 0.1 | 2.97 ± 0.096 |
| GGSSDTADKIRIHAKNF [GAL11] | 1.86 ± 0.061 | 1.42 ± 0.072 | 1.68 ± 0.054 | 1.67 ± 0.066 |
| TIITDCAFLLTKIKDAE [YJL039C/NUP192] | 2.78 ± 0.077 | 2.06 ± 0.13 | 2.52 ± 0.07 | 2.52 ± 0.071 |
| GTISIQLKNGLLEKYNT [MTR3] | 2.5 ± 0.073 | 2.42 ± 0.082 | 2.43 ± 0.037 | 2.28 ± 0.059 |
| EVSCKLLETITYVLNTW [YML103C/NUP188] | 2.35 ± 0.073 | 2.07 ± 0.11 | 2.11 ± 0.082 | 2.15 ± 0.068 |
| GKLAKPRQLHNTHWGLV [RPB2] | 2.84 ± 0.071 | 2.61 ± 0.068 | 2.94 ± 0.092 | 2.85 ± 0.082 |
| VFLLTTRAGGLGINLVT [ISW2] | 1.7 ± 0.063 | 1.56 ± 0.13 | 1.4 ± 0.13 | 1.69 ± 0.076 |
| LLTEELAKSGSTEETTA [TAF14] | 3.05 ± 0.091 | 2.82 ± 0.1 | 2.74 ± 0.087 | 3.05 ± 0.15 |
| LVHDGLARGLRESTKAL [RPS12] | 3.52 ± 0.15 | 3.19 ± 0.17 | 2.83 ± 0.17 | 3.41 ± 0.091 |
| NLQTADTVIIFDTDWNP [SNF2] | 2.96 ± 0.091 | 2.8 ± 0.078 | 2.34 ± 0.064 | 2.57 ± 0.14 |
| TLLREVVFTRLVQRCWQ [CSN12] | 1.24 ± 0.048 | 1.39 ± 0.12 | 1.54 ± 0.055 | 1.4 ± 0.061 |

| Sequence | protein stability index (pdr5∆) | protein stability index (san1∆) | protein stability index (ubr1∆) | protein stability index (doa10∆) |
| --- | --- | --- | --- | --- |
| FSFTEPAQKDSSVVSEP [YOR098C/NUP1] | 3.11 ± 0.1 | 2.81 ± 0.12 | 3.26 ± 0.094 | 3.02 ± 0.097 |
| SDNSVSVRLQVTKILPH [IRR1] | 2.92 ± 0.12 | 2.74 ± 0.097 | 3.04 ± 0.074 | 2.86 ± 0.15 |
| KILGKGRIPNVPVIVKA [RPL28] | 1.87 ± 0.081 | 2.37 ± 0.085 | 3.24 ± 0.054 | 2.35 ± 0.065 |
| QRETSGMIVISMENYHL [SRB8] | 1.99 ± 0.04 | 2.09 ± 0.042 | 2.35 ± 0.033 | 2.16 ± 0.04 |
| IGIDEGSDEAYVKDARK [RPC40] | 3.38 ± 0.076 | 3.19 ± 0.051 | 3.5 ± 0.054 | 3.48 ± 0.074 |
| IQQVVEYADNDEDKFKK [PRP28] | 3.03 ± 0.093 | 3.24 ± 0.084 | 3.17 ± 0.047 | 3.06 ± 0.072 |
| LIENKIQNKKIQEQRVK [RPN8] | 2.7 ± 0.073 | 2.74 ± 0.068 | 2.83 ± 0.049 | 2.61 ± 0.075 |
| FGLGYGDVGKNHITEFP [RPC31] | 3.22 ± 0.11 | 3.38 ± 0.12 | 3.56 ± 0.12 | 3.17 ± 0.11 |
| PAHTVIIKGTDVYSPEK [BRR2] | 3.19 ± 0.077 | 2.54 ± 0.072 | 2.68 ± 0.055 | 3.02 ± 0.055 |
| LIKKPLTVFYAIKKFKT [SSN3] | 1.56 ± 0.048 | 1.77 ± 0.091 | 1.42 ± 0.075 | 1.51 ± 0.11 |
| KIVFILDSDSENDLSFA [RRI2] | 2.61 ± 0.059 | 2.09 ± 0.12 | 2.59 ± 0.047 | 2.52 ± 0.059 |
| KNRSNRKRFHSQSKGTV [YOR098C/NUP1] | 3.11 ± 0.18 | 2.89 ± 0.16 | 3.26 ± 0.19 | 3.21 ± 0.18 |
| LLAREVLRLRGALVDRT [RPS0A] | 2.15 ± 0.094 | 1.78 ± 0.15 | 2.03 ± 0.15 | 2.17 ± 0.21 |
| HASFLCSFITQDKMFVS [FAS1] | 1.64 ± 0.056 | 1.35 ± 0.1 | 1.35 ± 0.033 | 2.01 ± 0.063 |
| SLNNSDSLISGVKQKIT [BRR2] | 1.87 ± 0.056 | 1.61 ± 0.16 | 2.31 ± 0.049 | 2 ± 0.085 |
| TNEEVRNMAEEFEYDDE [CYT1] | 2.3 ± 0.077 | 2.49 ± 0.098 | 2.2 ± 0.041 | 2.92 ± 0.14 |
| QVVTTVASQSPHATATE [SNF6] | 2.88 ± 0.079 | 2.6 ± 0.096 | 2.79 ± 0.047 | 2.56 ± 0.11 |
| NSDDFFMDNSYDIDEID [ESC2] | 2.64 ± 0.077 | 2.64 ± 0.075 | 2.31 ± 0.051 | 2.27 ± 0.058 |
| NELLEMVGLASGNDSMA [BRR2] | 2.1 ± 0.072 | 3.11 ± 0.077 | 2.32 ± 0.057 | 2.59 ± 0.094 |
| LKENAGSLTFLDNKGSG [YIL149C/MLP2] | 3.37 ± 0.1 | 3.55 ± 0.12 | 3.48 ± 0.066 | 3.31 ± 0.17 |
| ETISNVAKTAPNSNKTH [SNF2] | 3 ± 0.061 | 2.96 ± 0.035 | 3.07 ± 0.045 | 2.96 ± 0.055 |
| RPKPVSPPCYIIDHIPG [SNF5] | 2.64 ± 0.096 | 2.28 ± 0.12 | 2.25 ± 0.079 | 1.79 ± 0.098 |
| LNKGKKVTSMTPAPKIS [RPL36A] | 2.98 ± 0.14 | – | 3.15 ± 0.12 | – |
| AFALAKEKAPTIIFIDE [RPT5] | 2.78 ± 0.12 | 2.83 ± 0.14 | 2.88 ± 0.086 | 2.79 ± 0.12 |
| IQISKLHYTPIEDLWQF [RPC82] | 2.27 ± 0.13 | 2.09 ± 0.12 | 2.36 ± 0.15 | 2.26 ± 0.12 |
| GNYVIIIGHNPDENKTR [RPL2A] | 3.32 ± 0.093 | 3.12 ± 0.074 | 2.87 ± 0.082 | 2.97 ± 0.088 |
